Source: patent US20250368742A1 (D2M BIOTHERAPEUTICS, published 2025)

B1: B10G5 (antibody, human IgG1, kappa, V domains shown)
VH: EVQLEESGPGLVKPSQSLSLTCTVTGYSITSDYAWNWIRQFPGNKLEWMGYISYSGSTNYNPSLKSRISITRDTSKNQFFLQLNSVITEDTATYYCARGGTYFDYWGQGTTLTVSS
VL: DIVLTQTTSYLSVSLGGRVTIACKASAHINNWLAWYQQKPGNAPRLLISDATSLETGVPSRFSGSGSGKDYTLSITSLQTEDVATYYCQHYWSTPWTFGGGTKLEIKR
notes: also called B10G5-2; P2B10G5
B2: 6E1.1.12 (antibody, human IgG1, kappa, V domains shown)
VH: QGQMQQSGAELVKPGASVKLSCKTSGFTFSDNYISWLKQKPGQSLEWIAWIYAGTGGSSYNQKFRDKAQLTVDTSSRTAYMQLSSLTTEDSAIYYCARHDYYGTSGAWFAYWGRGTLVTVSA
VL: DVLMTQTPLSLPVSLGDQASISCRSSQHIVHSNENTYLEWYLQKPGQSPKLLIYKVSNRFSGVPDRFSGSGSGTDFTLKISRVEAEDLGVYYCFQGSHVPWTFGGGTKVEIKR
B3: #39 (antibody, human IgG1, V domains shown)
VH: QVQLQQSGAELVRPGTSVKVSCKASGYAFTDYLIEWVKQRPGQGLEWIGGINPGSGSTNYNEKFKGKAILTADKSSSTAYMQLSSLTSDDSAVYFCARLDGNYVGYWGQGTTLTVSS
VL: DILLTQSPASLSASVGETVTITCRASGNIHNYLAWYQQKQGKSPQLLVYHAKTLADGVPSRFSGSGSGTQYSLKINSLQPEDFGSYYCQHFWSTPWTFGGGTKLEIK
notes: also called PL114G03; Hit ID 39
B4: #31 (antibody, human IgG1, V domains shown)
VH: EVQLQQSGPELVKPGASVKVSCKASGYAFTKYNIYWVKQSHGKSLEWIGYIDPYNGGTVQNQKFKGKATLTVDKSSSTAYMHLNSLTSEDSAVYYCATTDGYSLFTYWGQGTLVTVSS
VL: DIQMTQTTSSLSASLGDRVTISCRASQDIGNYLNWYQQKPDGTVKLLIYYTSRLHSGVPSRFSGSGSGTDYSLTISNLEQEDIATYFCQQGNTLPFTFGSGTKLEIK
notes: also called PL116D11; Hit ID 31
B5: #34 (antibody, human IgG1, V domains shown)
VH: QVQLKQSGPELVKPGASVKVSCKASGYAFTKYNIYWVKQSHGKSLEWIGYIDPYNGGTVQNQKFKGKATLTVDKSSSTAYMHLNSLTSEDSAVYYCATTDGYSLFTYWGQGTLVTVSS
VL: DIVLTQSPTTMAASPGEKITITCSASSSISSNYLHWYQQKPGFSPKLLIYRTSNLASGVPARFSGSGSGTSYSLTIGTMEAEDVATYYCQQGSSIPFTFGSGTKLEIK
notes: also called PL111H04; Hit ID 34
B6: #40 (antibody, human IgG1, V domains shown)
VH: QVQLQQSGPELVKPGASVKVSCKASGYAFTKYNIYWVKQSHGKSLEWIGYIDPYNGGTVYNQKFKGKATLTVDKSSSTAYMHLNSLTSEDSAVYYCATTDGYSLFTYWGQGTLVTVSA
VL: DIQMTQTTSSLSASLGDRVTITCSAGQGINNYLNWYQQKPDGTVKLLIFYTSSLQSGVPSRFSGSGSGADYSLTISNLEPEDIATYYCQQYSKLPLTFGAGTKLELK
notes: also called PL113C03; Hit ID 40
B7: #36 (antibody, human IgG1, V domains shown)
VH: QVQLQQSGPELVKPGASVKVSCKASGYAFTKYNIYWVKQSHGKSLEWIGYIDPYNGGTVYNQKFKGKATLTVDKSSSTAYMHLNSLTSEDSAVYYCATTDGYSLFTYWGQGTLVTVSA
VL: DIQMTQTTSSLSASLGDRVTISCRASQDISNYLNWYQQKPDGTVKLLIYYTSRLHSGVPSRFSGSGSGTDYSLTISNLEQEDIATYFCQQGNTLPFTFGSGTKLEIK
notes: also called PL116H11; Hit ID 36
B8: #38 (antibody, human IgG1, V domains shown)
VH: QVQLQQSGAELARPGASVKLSCKASGYTFSIHWMQWVKQRPGQGLEWIGAIYPGNGDTKYTQKFKGKATLTADKSSSTAYMQLSNLASEDSAVYYCATLYGNYEAYWGQGTLVTVSA
VL: DIVLTQSPASLSASVGETVTITCGASENIYGALNWYQRKQGKSPQLLIYGTTNLADGMSSRFSGSGSGRQYSLKISSLHPDDVATYYCQNVLTTPPWTFGGGTKLEIK
notes: also called PL114H02; Hit ID 38

How the values were obtained:
[1] = biological target: T1, MICA009Avi (human); experiment: BLI (GatorPrime); antibody on anti-hIgG Fc probe, monomeric antigen in solution;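 note: binding kinetics of anti-MICA/B antibodies measured by biolayer interferometry, with dissociation followed for about 10 min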
T1 construct: extracellular domain
Description: (§1) The binding kinetics of the antibodies were also measured using the GatorPrime BLI (Biolayer Interferometry) system (Gator Bio, USA). Specifically, the anti-MICA/B antibodies were loaded with HFC (Anti-hIgG Fc, Gator Bio, Cat #: 160003). […] The dissociation kinetics were monitored for approximately 10 minutes. The probes were regenerated between binding cycles with Regeneration Buffer (Gator Bio, Cat #: 120012). Binding kinetics were analyzed using software supplied by the manufacturer.

[2] = biological target: T2, MICA004-ECD-HISAvi (human); experiment: as above
T2 construct: also called MICA004 polypeptide
T2 chain: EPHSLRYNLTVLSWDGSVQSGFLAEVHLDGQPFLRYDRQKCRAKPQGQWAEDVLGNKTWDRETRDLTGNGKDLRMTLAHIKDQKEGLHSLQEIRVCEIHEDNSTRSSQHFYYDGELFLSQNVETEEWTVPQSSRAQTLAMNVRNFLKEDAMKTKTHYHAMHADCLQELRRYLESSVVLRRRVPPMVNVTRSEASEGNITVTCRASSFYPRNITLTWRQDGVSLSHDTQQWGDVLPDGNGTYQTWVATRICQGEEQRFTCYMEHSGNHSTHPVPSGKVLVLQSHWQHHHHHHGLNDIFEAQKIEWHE
Description: as §1

[3] = biological target: T3, MICA008-ECD-HISAvi (human); experiment: as above
T3 construct: Two sources under one name in the two kinetic assays; also called MICA008 polypeptide
T3 chain: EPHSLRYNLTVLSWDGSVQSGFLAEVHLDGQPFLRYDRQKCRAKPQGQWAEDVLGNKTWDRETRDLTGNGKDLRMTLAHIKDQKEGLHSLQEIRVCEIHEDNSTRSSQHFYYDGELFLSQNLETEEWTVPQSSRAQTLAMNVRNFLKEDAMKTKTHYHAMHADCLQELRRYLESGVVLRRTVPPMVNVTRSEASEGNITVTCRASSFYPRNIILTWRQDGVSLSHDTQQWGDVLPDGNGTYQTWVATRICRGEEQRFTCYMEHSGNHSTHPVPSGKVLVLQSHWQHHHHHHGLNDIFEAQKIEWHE
Description: as §1

[4] = biological target: T4, MICB005-ECD-HISAvi (human, UniProt Q29980 24-309); experiment: as above
T4 construct: Two sources under one name in the two kinetic assays; also called MICB005 polypeptide
T4 sequence: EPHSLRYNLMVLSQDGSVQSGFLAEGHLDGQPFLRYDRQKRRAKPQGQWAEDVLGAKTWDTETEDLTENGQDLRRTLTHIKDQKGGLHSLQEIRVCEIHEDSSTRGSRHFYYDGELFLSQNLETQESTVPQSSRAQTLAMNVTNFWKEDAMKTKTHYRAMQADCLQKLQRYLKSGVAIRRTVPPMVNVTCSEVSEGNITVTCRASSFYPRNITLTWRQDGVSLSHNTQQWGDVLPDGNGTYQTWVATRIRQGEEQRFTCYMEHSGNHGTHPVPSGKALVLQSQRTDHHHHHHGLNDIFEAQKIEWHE
Description: as §1

[5] = biological target: T5, MICA002-ECD-HISAvi (human, UniProt Q29983 24-308); experiment: SPR (Carterra); antibody captured by anti-human Fc, monomeric ECD antigen injected;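 note: dissociation phase followed for about 10 min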
T5 construct: also called MICA002 polypeptide
T5 chain: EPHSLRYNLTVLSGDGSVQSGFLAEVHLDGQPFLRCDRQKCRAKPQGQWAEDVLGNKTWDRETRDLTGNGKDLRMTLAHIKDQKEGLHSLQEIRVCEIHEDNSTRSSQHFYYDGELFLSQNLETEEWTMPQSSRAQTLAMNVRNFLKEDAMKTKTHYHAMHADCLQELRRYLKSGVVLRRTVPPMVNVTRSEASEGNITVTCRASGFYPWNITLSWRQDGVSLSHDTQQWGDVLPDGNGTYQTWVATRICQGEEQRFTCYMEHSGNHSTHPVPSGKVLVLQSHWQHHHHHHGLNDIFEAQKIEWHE
Description: (§2) The dissociation kinetics were monitored for approximately 10 minutes. The chip surface was regenerated between binding cycles with 10 mM glycine HCl, pH 1.7. Binding kinetics were analyzed using software supplied by the manufacturer.

[6] = biological target: T2, MICA004-ECD-HISAvi; experiment: as above
Description: as §2

[7] = biological target: T3, MICA008-ECD-HISAvi; experiment: as above
Description: as §2

[8] = biological target: T4, MICB005-ECD-HISAvi; experiment: as above
Description: as §2

[9] = biological target: T6, human MICB005 on cells (human); experiment: flow cytometry, CHO-MICB005 cells
T6 construct: whole, on cells; also called CHO-MICB005; C1R-MICB005
Description: (§3) IgG1 is an isotype control (IgG). The antibody binding signals of APC (gMFI) to MICA/B were measured by flow cytometry.
(§4) After an incubation time of 30 minutes, the plate was centrifuged and cells were washed with PBS three times. […] After mixing for 30 minutes at room temperature, cells were washed with PBS twice. Fluorescent signal was detected and quantified by flow cytometry (Attune™ CytPix™, ThermoFisher) within the population of live cells (viability dye PI negative).

[10] = biological target: T7, human MICA004 on cells (human); experiment: flow cytometry, CHO-MICA004 cells
T7 construct: whole, on cells; also called CHO-MICA004; C1R-MICA004
Description: as §3, §4

[11] = biological target: T8, human MICA008 on cells (human); experiment: flow cytometry, HeLa cells (MICA008)
T8 construct: whole, on cells; also called CHO-MICA008; C1R-MICA008
Description: as §3, §4

[12] = biological target: T9, human MICA002 on cells (human); experiment: flow cytometry, CHO-MICA002 cells
T9 chain: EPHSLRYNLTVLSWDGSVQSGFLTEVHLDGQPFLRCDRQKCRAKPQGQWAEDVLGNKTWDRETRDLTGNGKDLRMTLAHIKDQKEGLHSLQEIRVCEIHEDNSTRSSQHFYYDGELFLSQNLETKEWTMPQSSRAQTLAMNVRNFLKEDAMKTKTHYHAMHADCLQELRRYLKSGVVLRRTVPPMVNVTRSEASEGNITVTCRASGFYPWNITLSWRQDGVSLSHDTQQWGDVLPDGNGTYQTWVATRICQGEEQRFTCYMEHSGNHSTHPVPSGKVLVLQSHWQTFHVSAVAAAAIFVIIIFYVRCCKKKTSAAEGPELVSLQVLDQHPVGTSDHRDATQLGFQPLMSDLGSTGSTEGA
Description: CHO-MICA002 cells were incubated with titrated anti-MICA/B antibodies and then APC-labeled anti-human Fc antibody. […] The antibody binding signals of APC (gMFI) to MICA/B were measured by flow cytometry.
as §4

[13] = biological target: T8, human MICA008 on cells; experiment: flow cytometry, CHO-MICA008 cells
Description: as §3, §4

Binder	Kd [1] [µM]	Kd [2] [µM]	Kd [3] [µM]	Kd [4] [µM]	binding result [5]	Kd [6] [µM]	Kd [7] [µM]	Kd [8] [µM]	EC50 [9] [mg/L]	EC50 [10] [mg/L]	EC50 [11] [mg/L]	EC50 [12] [mg/L]	EC50 [13] [mg/L]	Kd [5] [µM]
B1	0.000716	0.00116	0.000625	0.00135	no binding	0.00692	0.000846	0.00227	–	–	–	–	–	–
B2	0.00394	–	–	0.00454	–	–	–	0.00862	0.184	0.239	0.269	0.882	0.15	–
B3	–	–	–	–	–	0.139	0.0548	0.00537	1.4	7.27	4.27	3.68	1.31	0.0144
B4	–	–	–	–	–	0.0253	0.0144	0.015	0.21	0.221	0.183	0.232	0.051	0.0132
B5	–	–	–	–	–	0.0445	0.0292	0.038	0.278	0.202	0.122	0.144	0.048	0.0249
B6	–	–	–	–	–	0.0304	0.0205	0.0458	0.445	0.306	0.183	0.176	0.085	0.0139
B7	–	–	–	–	–	0.0401	0.0212	0.0231	0.249	0.248	0.189	0.2	0.063	0.0207
B8	–	–	–	–	–	0.00377	0.00704	0.00178	1.42	3.93	1.85	2.48	1.1	0.00249
